The values below come from patent publication US20080176225A1, “MEMBRANE BOUND REPORTER GENE SYSTEM” (priority 2007, published 2008).

A short description of data set [1]: Specific activity and pH profile of purified recombinant β-glucuronidases. In kind it is biochemical. Conditions: purified recombinant protein, n=3; for maximal specific activity: at optimal pH. The source says:
It is contemplated that the disparity between the relative surface expression levels the relative enzymatic activity of human β-glucuronidase, mouse β-glucuronidase, and E. coli β-glucuronidase in EJ cells is probably because of the neutral pH optimum of E. coli β-glucuronidase or a highly specific enzyme activity for the recombinant E. coli β-glucuronidase enzyme, which could cause the relatively effective hydrolysis of glucuronide substrates even though even though the expression levels of E. coli β-glucuronidase present on EJ/eβG cells are relatively lower than the expression levels of human β-glucuronidase. To differentiate these possibilities, recombinant forms of each enzyme are purified in order to measure accurately their specific activities at defined pH values.
The relative enzymatic activities (percentage maximum activity) of these recombinant enzymes at the indicated pH values are shown (n=3).
E. coli β-glucuronidase display a maximal specific activity of about 20,000 U/mg whereas human β-glucuronidase and mouse β-glucuronidase had maximal specific activities of abut 1600 U/mg and about 1100 U/mg, respectively.

In another data set the test system is EJ cells. In words: Surface β-glucuronidase enzyme activity of stable EJ cells. In kind it is cell-based, human. Particulars: triplicate determinations. As to the method:
(§1) For performing surface enzyme activity assay, transiently-transfected 3T3 fibroblasts in 96-well microplates were washed once with phosphate-buffered saline and immediately assayed for βG activity by adding about 200 μl of phosphate-buffered saline (pH 7.0) buffer containing 0.1% of BSA and 0.25 mM of a β-glucuronidase substrate, 4-methylumbelliferyl β-D-glucuronide, for 30 min at 37° C. About 150 μl of the resulting mixture was transferred to a 96-well fluorescence microplate and mixed with about 75 μl of a stop buffer containing about 1 M of glycine and about 0.5 M of sodium bicarbonate at pH 11. The fluorescence of each mixture was measured at an excitation wavelength of 365 nm and an emission wavelength of 455 nm.
The results shown are the mean values of triplicate determinations. EJ/mβG cells display about 2-3 fold more β-glucuronidase activity than EJ/eβG cells and about 5-fold higher activity than EJ/hβG cells. […] The enzymatic activity of E. coli β-glucuronidase in EJ cells are relatively higher than human β-glucuronidase, even though the expression levels of E. coli β-glucuronidase present on EJ/eβG cells are relatively lower than the expression levels of human β-glucuronidase.

The subject of a further data set is 3T3 fibroblasts. In words: Surface enzyme activity assay of transiently transfected 3T3 fibroblasts (4-methylumbelliferyl β-D-glucuronide). In kind it is cell-based, murine. As to the method:
as §1
3T3 fibroblasts were transfected with plasmid DNAs using lipofectamine. After about 48 hour, the transfected cells were washed with phosphate-buffered saline and immediately assayed for β-glucuronidase activity by adding 4-methylumbelliferyl β-D-glucuronide for about 30 min at 37° C. The fluorescence (MUG reading as shown) of the resulting mixture was measured. The β-glucuronidase activity in the culture medium of transfected cells was also measured in an analogous way.

B1: E. coli β-glucuronidase: purified recombinant E. coli β-glucuronidase protein (protein, UniProt P05804 1-603, looked up)
Beta-glucuronidase: MLRPVETPTREIKKLDGLWAFSLDRENCGIDQRWWESALQESRAIAVPGSFNDQFADADIRNYAGNVWYQREVFIPKGWAGQRIVLRFDAVTHYGKVWVNNQEVMEHQGGYTPFEADVTPYVIAGKSVRITVCVNNELNWQTIPPGMVITDENGKKKQSYFHDFFNYAGIHRSVMLYTTPNTWVDDITVVTHVAQDCNHASVDWQVVANGDVSVELRDADQQVVATGQGTSGTLQVVNPHLWQPGEGYLYELCVTAKSQTECDIYPLRVGIRSVAVKGEQFLINHKPFYFTGFGRHEDADLRGKGFDNVLMVHDHALMDWIGANSYRTSHYPYAEEMLDWADEHGIVVIDETAAVGFNLSLGIGFEAGNKPKELYSEEAVNGETQQAHLQAIKELIARDKNHPSVVMWSIANEPDTRPQGAREYFAPLAEATRKLDPTRPITCVNVMFCDAHTDTISDLFDVLCLNRYYGWYVQSGDLETAEKVLEKELLAWQEKLHQPIIITEYGVDTLAGLHSMYTDMWSEEYQCAWLDMYHRVFDRVSAVVGEQVWNFADFATSQGILRVGGNKKGIFTRDRKPKSAAFLLQKRWTGMNFGEKPQQGGKQ
As for B1, in data set [1], the maximal specific activity result is listed as “about 20,000 U/mg” and the “pH of maximal/optimal enzymatic activity” value is reported as “neutral pH range”.

B2: mouse β-glucuronidase: purified recombinant mouse β-glucuronidase protein (protein, listed as Mus musculus)
chain: LKGGMLFPKESPSRELKALDGLWHFRADLSNNRLQGFEQQWYRQPLRESGPVLDMPVPSSFNDITQEAALRDFIGWVWYEREAILPRRWTQDTDMRVVLRINSAHYYAVVWVNGIHVVEHEGGHLPFEADISKLVQSGPLTTCRITIAINNTLTPHTLPPGTIVYKTDTSMYPKGYFVQDTSFDFFNYAGLHRSVVLYTTPTTYIDDITVITNVEQDIGLVTYWISVQGSEHFQLEVQLLDEDGKVVAHGTGNQGQLQVPSANLWWPYLMHEHPAYMYSLEVKVTTTESVTDYYTLPVGIRTVAVTKSKFLINGKPFYFQGVNKHEDSDIRGKGFDWPLLVKDFNLLRWLGANSFRTSHYPYSEEVLQLCDRYGIVVIDECPGVGIVLPQSFGNESLRHHLEVMEELVRRDKNHPAVVMWSVANEPSSALKPAAYYFKTLITHTKALDLTRPVTFVSNAKYDADLGAPYVDVICVNSYFSWYHDYGHLEVIQPQLNSQFENWYKTHQKPIIQSEYGADAIPGIHEDPPRMFSEEYQKAVLENYHSVLDQKRKEYVVGELIWNFADFMTNQSPLRVIGNKKGIFTRQRQPKTSAFILRERYWRIANETGGHGSGPRTQCFGSRPFTF
As to B2, in data set [1], the maximal specific activity result is recorded as “about 1100 U/mg”.

B3: mβG-e-B7: murine β-glucuronidase fused to immunoglobulin-like C2-type extracellular region, transmembrane domain and cytoplasmic tail of murine B7-1 antigen (protein)
chain: LKGGMLFPKESPSRELKALDGLWHFRADLSNNRLQGFEQQWYRQPLRESGPVLDMPVPSSFNDITQEAALRDFIGWVWYEREAILPRRWTQDTDMRVVLRINSAHYYAVVWVNGIHVVEHEGGHLPFEADISKLVQSGPLTTCRITIAINNTLTPHTLPPGTIVYKTDTSMYPKGYFVQDTSFDFFNYAGLHRSVVLYTTPTTYIDDITVITNVEQDIGLVTYWISVQGSEHFQLEVQLLDEDGKVVAHGTGNQGQLQVPSANLWWPYLMHEHPAYMYSLEVKVTTTESVTDYYTLPVGIRTVAVTKSKFLINGKPFYFQGVNKHEDSDIRGKGFDWPLLVKDFNLLRWLGANSFRTSHYPYSEEVLQLCDRYGIVVIDECPGVGIVLPQSFGNESLRHHLEVMEELVRRDKNHPAVVMWSVANEPSSALKPAAYYFKTLITHTKALDLTRPVTFVSNAKYDADLGAPYVDVICVNSYFSWYHDYGHLEVIQPQLNSQFENWYKTHQKPIIQSEYGADAIPGIHEDPPRMFSEEYQKAVLENYHSVLDQKRKEYVVGELIWNFADFMTNQSPLRVIGNKKGIFTRQRQPKTSAFILRERYWRIANETGGHGSGPRTQCFGSRPFTFVDEQKLISEEDLADFSTPNITESGNPSADTKRITCFASGGFPKPRFSWLENGRELPGINTTISQDPESELYTISSQLDFNTTRNHTIKCLIKYGDAHVSEDFTWEKPPEDPPDSKNTLVLFGAGFGAVITVVVIVVIIKCFCKHRSCFRRNEASRETNNSLTFGPEEALAEQTVFL
As to B3, the “surface β-glucuronidase activity of EJ/mβG cells relative to EJ/hβG cells” value in the data set with EJ cells (higher activity) is recorded as “about 5 fold”. In addition, in the data set with EJ cells (more activity), the “surface β-glucuronidase activity of EJ/mβG cells relative to EJ/eβG cells” value is listed as 2-3 fold.

B4: hβG-e-B7: human β-glucuronidase fused to Ig-like C2-type and Ig-hinge-like domains, TM and cytoplasmic tail of murine B7-1 (protein)
chain: LQGGMLYPQESPSRECKELDGLWSFRADFSDNRRRGFEEQWYRRPLWESGPTVDMPVPSSFNDISQDWRLRHFVGWVWYEREVILPERWTQDLRTRVVLRIGSAHSYAIVWVNGVDTLEHEGGYLPFEADISNLVQVGPLPSRLRITIAINNTLTPTTLPPGTIQYLTDTSKYPKGYFVQNTYFDFFNYAGLQRSVLLYTTPTTYIDDITVTTSVEQDSGLVNYQISVKGSNLFKLEVRLLDAENKVVANGTGTQGQLKVPGVSLWWPYLMHERPAYLYSLEVQLTAQTSLGPVSDFYTLPVGIRTVAVTKSQFLINGKPFYFHGVNKHEDADIRGKGFDWPLLVKDFNLLRWLGANAFRTSHYPYAEEVMQMCDRYGIVVIDECPGVGLALPQFFNNVSLHHHMQVMEEVVRRDKNHPAVVMWSVANEPASHLESAGYYLKMVIAHTKSLDPSRPVTFVSNSNYAADKGAPYVDVICLNSYYSWYHDYGHLELIQLQLATQFENWYKKYQKPIIQSEYGAETIAGFHQDPPLMFTEEYQKSLLEQYHLGLDQKRRKYVVGELIWNFADFMTEQSPTRVLGNKKGIFTRQRQPKSAAFLLRERYWKIANETRYPHSVAKSQCLENSPFTVDEQKLISEEDLADFSTPNITESGNPSADTKRITCFASGGFPKPRFSWLENGRELPGINTTISQDPESELYTISSQLDFNTTRNHTIKCLIKYGDAHVSEDFTWEKPPEDPPDSKNTLVLFGAGFGAVITVVVIVVIIKCFCKHRSCFRRNEASRETNNSLTFGPEEALAEQTVFL
With B4, the “β-glucuronidase enzyme activity on the cell surface” value in the data set on 3T3 fibroblasts is “greatest levels”.

B5: human β-glucuronidase: purified recombinant human β-glucuronidase protein (protein, listed as Homo sapiens)
chain: LQGGMLYPQESPSRECKELDGLWSFRADFSDNRRRGFEEQWYRRPLWESGPTVDMPVPSSFNDISQDWRLRHFVGWVWYEREVILPERWTQDLRTRVVLRIGSAHSYAIVWVNGVDTLEHEGGYLPFEADISNLVQVGPLPSRLRITIAINNTLTPTTLPPGTIQYLTDTSKYPKGYFVQNTYFDFFNYAGLQRSVLLYTTPTTYIDDITVTTSVEQDSGLVNYQISVKGSNLFKLEVRLLDAENKVVANGTGTQGQLKVPGVSLWWPYLMHERPAYLYSLEVQLTAQTSLGPVSDFYTLPVGIRTVAVTKSQFLINGKPFYFHGVNKHEDADIRGKGFDWPLLVKDFNLLRWLGANAFRTSHYPYAEEVMQMCDRYGIVVIDECPGVGLALPQFFNNVSLHHHMQVMEEVVRRDKNHPAVVMWSVANEPASHLESAGYYLKMVIAHTKSLDPSRPVTFVSNSNYAADKGAPYVDVICLNSYYSWYHDYGHLELIQLQLATQFENWYKKYQKPIIQSEYGAETIAGFHQDPPLMFTEEYQKSLLEQYHLGLDQKRRKYVVGELIWNFADFMTEQSPTRVLGNKKGIFTRQRQPKSAAFLLRERYWKIANETRYPHSVAKSQCLENSPFT
As for B5, the maximal specific activity in data set [1] is about 1600 U/mg.
